Here are results for two molecules from patent US11629364B2, “Methods for synthesizing anticoagulant polysaccharides” (OPTIMVIA, LLC, priority 2019, dated 2023).

What all share (assay type): biochemical
The nature of series [1]: 3OST activity confirmed by 1H NMR. The settings on record: PNS as aryl sulfate compound. The protocol: Each enzyme was purified according to the procedure of Example 1. To each purified protein solution, 20 mg of an aryl sulfate compound (PNS or NCS) dissolved in 2 mL of reaction buffer (50 mM MES pH 7.0, 2 mM CaCl2)) was added to the protein solution and incubated at 37° C. for 10 min. 2.5 mL of 2 mg/mL solution of the commercial heparin polysaccharide utilized in Example 5 was added to protein/donor solution and incubated overnight at 37° C.
Each reaction was centrifuged at 5,000×g for 10 min, applied to a pre-wetted 30K MWCO Amicon-15 filter and centrifuged at 5,000×g for 10 min. The filter was washed once with 2 mL water, and centrifuged again. The filtrate was added to a 1K MWCO Dialysis membrane, dialyzed for 2 days in Milli-Q water, with water changes at 1 h, 2 h, 8 h, 16 h, 32 h, and then lyophilized. The dry, white powder was resuspended in 400 μL D20, lyophilized to remove exchangeable protons, then resuspended in 600 μL D2O and transferred to NMR tubes (Wilmad, 0.38 mm×7″). To determine if sulfotransfer took place, ^1H NMR spectra were obtained on a Bruker 600 MHz NMR, 32 scans, with water suppression. Within FIG. 30, the 3-O positions of any of the glucosamine residues can be sulfated by the 3OST enzyme. The sulfated 3-O position is circled in the central polysaccharide. […]

A short description of series [2]: 3OST activity: 3-O sulfated products detected by LCMS after lyase digestion. On the procedure:
A study was conducted in accordance with embodiments of the present disclosure to confirm 3OST activity of enzymes comprising the amino acid sequence of SEQ ID NO: 24, SEQ ID NO: 26, or SEQ ID NO: 28 by detecting the presence of 3-O sulfated polysaccharide products as a result of their sulfotransfer reaction, using a reaction, using a similar LCMS procedure as in Example 3, except that the sulfo acceptor polysaccharide was commercially-available heparin (CAS code: 9041-08-1, available from Millipore Sigma). Even though the unmodified heparin contains ˜3.5% (w/w) of 3-O sulfated glucosamine residues, about ˜60% of the glucosamine residues are N,6-sulfated and are adjacent to a 2-O sulfated hexuronic acid residue, as in Formula X. Consequently, these N,6-sulfated glucosamine residues can still be 3-O sulfated.

A short description of series [3]: 2OST activity: 2-O sulfated products detected by LCMS after lyase digestion. The settings on record: procedures of Example 3; expected. The protocol: A study was conducted in accordance with embodiments of the present disclosure to confirm 2OST activity of enzymes comprising the amino acid sequence of SEQ ID NO: 14 or SEQ ID NO: 16 by detecting the presence of 2-O sulfated polysaccharide products formed as a result of their sulfotransfer reaction, using a similar procedure as in Example 2, except that the sulfo acceptor polysaccharide was commercial heparin in which the 2-O sulfate groups had been selectively removed by chemical means (product DSH001/2, available from Galen Laboratory Supplies) and analysis of each of the digested samples containing sulfated products was conducted using mass spectrometry, coupled with SAX-based high performance liquid chromatography (LCMS).
Disaccharides obtained by digesting the 2-O sulfated products using the carbon-oxygen lyases having the amino acid sequence of SEQ ID NO: 30, SEQ ID NO: 31, and SEQ ID NO: 32 and according to the procedure described above in Example 2 were quantified on a Shimadzu LCMS-8050 Triple Quadrupole Liquid Chromatograph Mass Spectrometer. 100 ng of each of the digested samples, diluted in 10 mM ammonium bicarbonate (pH 10). The disaccharides were separated on a Thermo Hypercarb HPLC column (100×2.1 mm, 5 μm). […]

B1: SEQ ID NO: 26: engineered aryl sulfate-dependent 3OST enzyme, mutant of isoform 1 of the human 3OST enzyme (protein)
chain: MGTASNGSTQQLPQTIIIGVGHGGTRALLEMLSLHPDVAAAENEVHFFDWEEHYSQGLGWYLTQMPFSSPHQLTVEKTHSYFTSPKVPERIHSMNPTIRLLLILRDPSERVLSAYTHMLYNHLQKHKPYPPIEDLLMRDGRLNLDYTGLNRSLYHAHMLNWLRFFPLGHIHIVDGDRLIRDPFPEIQKVERFLKLSPQINASNFYFNKTKGFYCLRDSGKDRCLHESKGRAHPQVDPKLLDKLHEYFHEPNKKFFKLVGRTFDWH
modifications: Amino acid sequence encoding for engineered arylsulfate-dependent 3-O-sulfotransferase variant 2
notes: engineered aryl sulfate-dependent 3OST enzyme, mutant of isoform 1 of the human 3OST enzyme
As to B1, in series [1], the “3OST sulfotransferase activity with PNS (NMR)” value was 3-O sulfotransferase activity. For the same molecule, in series [2] (NCS as aryl sulfate compound), the “3OST sulfotransferase activity with NCS” value is “active as a sulfotransferase”. Further, the “abundance of 3-O sulfation in product” value in series [2] (relative to the commercial heparin standard) was “higher abundance of 3-O sulfation”.

B2: SEQ ID NO: 42: mutant of the human 2OST enzyme carrying the SEQ ID NO: 16 mutations (protein)
chain: MDEEEDMVIIYNRVHRTASHSFTNIAYDLCAKNKYHVLHINTTKGNPVMSLQDQVRFVKNITSWKEMKPGFYHGPVSYLDFAKFGVKKKPIYINVIRDPIERLVSYYYFLRFGSDKRPGLRMRKQGDKKTFDECVAEGGSDCAPEKLWLQIPFFCGHSSECWNVGSRWAMDQAKYNLINEYFLVGVTEELEDFIMLLEAALPRFFRGATELYRTGKKSHLHKTTEKKLPTKQTIAKLQQSDIWKMENEFYEFALEQFQFIRAHAVREKDGDLYILAQNFFYEKIYPKSN
modifications: Amino acid sequence encoding for engineered arylsulfate-dependent 2-O-sulfotransferase variant 4
For the molecule B2, the “2OST activity: N,2-HS products by MS” value in series [3] is recorded as “confirm the presence of N,2-HS products”.
